Experimental findings from patent publication EP0568622B1 are described below.

This assay concerns the target rat/human corticotropin releasing factor (r/h CRF), 41-residue peptide (rat/human (same molecule)). In words: method not stated.

Usually pKd stands for −log10 of the Kd, conventionally taken in molar units. Low values mean a high Kd, high ones a low Kd.

pKd: −log10 of the molar value.

“recombinant rat CRF-binding protein (rCRF-BP), secreted by transfected COS7 cells” showed a pKd of 10.00.
